The text below walks through data of IntAct's records for PubMed 30126976.

B1: FAST kinase domain-containing protein 5, mitochondrial (Homo sapiens), Q7L8L6 (parent)
chain: MAATLKSLKLVRYRAFCSPSAFGAVRSVSYWNVSSTQHGGQDPPEHISLCHSAKKVKNICSTFSSRRILTTSSAHPGLEFSKTSSSKASTLQLGSPRATGVDEEDVEVFDSFENMRVFLQLRPEYRVHSYNASETSQLLSVSEGELILHKVRVNQNNLQAQVIVDYLCKLSSLPAEQHPVLLGSTSFALLCQLSVKKIQLFDTQDLINVLKAFVILGIPHSHSMLDVYETKCCHQVWEMNMDQLLLVADLWRYLGRKVPRFLNIFSSYLNLHWKDLSLSQLVHLIYVIGENRQVSQDLMQKLESLILKYIDLINLEEVGTICLGFFKSSTNLSEFVMRKIGDLACANIQHLSSRSLVNIVKMFRFTHVDHINFMKQIGEIAPQRIPSLGVQGVMHLTLYCSALRFLNEGVMNAVAASLPPRVAHCRSKDVAKILWSFGTLNYKPPNAEEFYSSLISEIHRKMPEFNQYPEHLPTCLLGLAFLEYFPVELIDFALSPGFVRLAQERTKFDLLKELYTLDGTVGIECPDYRGNRLSTHLQQEGSELLWYLAEKDMNSKPEFLETVFLLETMLGGPQYVKHHMILPHTRSSDLEVQLDVNLKPLPFNREATPAENVAKLRLEHVGVSLTDDLMNKLLKGKARGHFQGKTESEPGQQPMELENKAAVPLGGFLCNVADKSGAMEMAGLCPAACMQTPRMKLAVQFTNRNQYCYGSRDLLGLHNMKRRQLARLGYRVVELSYWEWLPLLKRTRLEKLAFLHEKVFTSAL
B2: Plasma membrane calcium-transporting ATPase 1 (Homo sapiens), P20020 (parent)
chain: MGDMANNSVAYSGVKNSLKEANHDGDFGITLAELRALMELRSTDALRKIQESYGDVYGICTKLKTSPNEGLSGNPADLERREAVFGKNFIPPKKPKTFLQLVWEALQDVTLIILEIAAIVSLGLSFYQPPEGDNALCGEVSVGEEEGEGETGWIEGAAILLSVVCVVLVTAFNDWSKEKQFRGLQSRIEQEQKFTVIRGGQVIQIPVADITVGDIAQVKYGDLLPADGILIQGNDLKIDESSLTGESDHVKKSLDKDPLLLSGTHVMEGSGRMVVTAVGVNSQTGIIFTLLGAGGEEEEKKDEKKKEKKNKKQDGAIENRNKAKAQDGAAMEMQPLKSEEGGDGDEKDKKKANLPKKEKSVLQGKLTKLAVQIGKAGLLMSAITVIILVLYFVIDTFWVQKRPWLAECTPIYIQYFVKFFIIGVTVLVVAVPEGLPLAVTISLAYSVKKMMKDNNLVRHLDACETMGNATAICSDKTGTLTMNRMTVVQAYINEKHYKKVPEPEAIPPNILSYLVTGISVNCAYTSKILPPEKEGGLPRHVGNKTECALLGLLLDLKRDYQDVRNEIPEEALYKVYTFNSVRKSMSTVLKNSDGSYRIFSKGASEIILKKCFKILSANGEAKVFRPRDRDDIVKTVIEPMASEGLRTICLAFRDFPAGEPEPEWDNENDIVTGLTCIAVVGIEDPVRPEVPDAIKKCQRAGITVRMVTGDNINTARAIATKCGILHPGEDFLCLEGKDFNRRIRNEKGEIEQERIDKIWPKLRVLARSSPTDKHTLVKGIIDSTVSDQRQVVAVTGDGTNDGPALKKADVGFAMGIAGTDVAKEASDIILTDDNFTSIVKAVMWGRNVYDSISKFLQFQLTVNVVAVIVAFTGACITQDSPLKAVQMLWVNLIMDTLASLALATEPPTESLLLRKPYGRNKPLISRTMMKNILGHAFYQLVVVFTLLFAGEKFFDIDSGRNAPLHAPPSEHYTIVFNTFVLMQLFNEINARKIHGERNVFEGIFNNAIFCTIVLGTFVVQIIIVQFGGKPFSCSELSIEQWLWSIFLGMGTLLWGQLISTIPTSRLKFLKEAGHGTQKEEIPEEELAEDVEEIDHAERELRRGQILWFRGLNRIQTQIRVVNAFRSSLYEGLEKPESRSSIHNFMTHPEFRIEDSEPHIPLIDDTDAEDDAPTKRNSSPPPSPNKNNNAVDSGIHLTIEMNKSATSSSPGSPLHSLETSL
B3: Ribosomal protein S6 kinase alpha-2 (Homo sapiens), Q15349 (parent)
chain: MDLSMKKFAVRRFFSVYLRRKSRSKSSSLSRLEEEGVVKEIDISHHVKEGFEKADPSQFELLKVLGQGSYGKVFLVRKVKGSDAGQLYAMKVLKKATLKVRDRVRSKMERDILAEVNHPFIVKLHYAFQTEGKLYLILDFLRGGDLFTRLSKEVMFTEEDVKFYLAELALALDHLHSLGIIYRDLKPENILLDEEGHIKITDFGLSKEAIDHDKRAYSFCGTIEYMAPEVVNRRGHTQSADWWSFGVLMFEMLTGSLPFQGKDRKETMALILKAKLGMPQFLSGEAQSLLRALFKRNPCNRLGAGIDGVEEIKRHPFFVTIDWNTLYRKEIKPPFKPAVGRPEDTFHFDPEFTARTPTDSPGVPPSANAHHLFRGFSFVASSLIQEPSQQDLHKVPVHPIVQQLHGNNIHFTDGYEIKEDIGVGSYSVCKRCVHKATDTEYAVKIIDKSKRDPSEEIEILLRYGQHPNIITLKDVYDDGKFVYLVMELMRGGELLDRILRQRYFSEREASDVLCTITKTMDYLHSQGVVHRDLKPSNILYRDESGSPESIRVCDFGFAKQLRAGNGLLMTPCYTANFVAPEVLKRQGYDAACDIWSLGILLYTMLAGFTPFANGPDDTPEEILARIGSGKYALSGGNWDSISDAAKDVVSKMLHVDPHQRLTAMQVLKHPWVVNREYLSPNQLSRQDVHLVKGAMAATYFALNRTPQAPRLEPVLSSNLAQRRGMKRLTSTRL

Variants of B1 are the subject of the first test. To be noted: with scrib_human SCRIB.
Target sequence in this assay (Q14160 whole entry): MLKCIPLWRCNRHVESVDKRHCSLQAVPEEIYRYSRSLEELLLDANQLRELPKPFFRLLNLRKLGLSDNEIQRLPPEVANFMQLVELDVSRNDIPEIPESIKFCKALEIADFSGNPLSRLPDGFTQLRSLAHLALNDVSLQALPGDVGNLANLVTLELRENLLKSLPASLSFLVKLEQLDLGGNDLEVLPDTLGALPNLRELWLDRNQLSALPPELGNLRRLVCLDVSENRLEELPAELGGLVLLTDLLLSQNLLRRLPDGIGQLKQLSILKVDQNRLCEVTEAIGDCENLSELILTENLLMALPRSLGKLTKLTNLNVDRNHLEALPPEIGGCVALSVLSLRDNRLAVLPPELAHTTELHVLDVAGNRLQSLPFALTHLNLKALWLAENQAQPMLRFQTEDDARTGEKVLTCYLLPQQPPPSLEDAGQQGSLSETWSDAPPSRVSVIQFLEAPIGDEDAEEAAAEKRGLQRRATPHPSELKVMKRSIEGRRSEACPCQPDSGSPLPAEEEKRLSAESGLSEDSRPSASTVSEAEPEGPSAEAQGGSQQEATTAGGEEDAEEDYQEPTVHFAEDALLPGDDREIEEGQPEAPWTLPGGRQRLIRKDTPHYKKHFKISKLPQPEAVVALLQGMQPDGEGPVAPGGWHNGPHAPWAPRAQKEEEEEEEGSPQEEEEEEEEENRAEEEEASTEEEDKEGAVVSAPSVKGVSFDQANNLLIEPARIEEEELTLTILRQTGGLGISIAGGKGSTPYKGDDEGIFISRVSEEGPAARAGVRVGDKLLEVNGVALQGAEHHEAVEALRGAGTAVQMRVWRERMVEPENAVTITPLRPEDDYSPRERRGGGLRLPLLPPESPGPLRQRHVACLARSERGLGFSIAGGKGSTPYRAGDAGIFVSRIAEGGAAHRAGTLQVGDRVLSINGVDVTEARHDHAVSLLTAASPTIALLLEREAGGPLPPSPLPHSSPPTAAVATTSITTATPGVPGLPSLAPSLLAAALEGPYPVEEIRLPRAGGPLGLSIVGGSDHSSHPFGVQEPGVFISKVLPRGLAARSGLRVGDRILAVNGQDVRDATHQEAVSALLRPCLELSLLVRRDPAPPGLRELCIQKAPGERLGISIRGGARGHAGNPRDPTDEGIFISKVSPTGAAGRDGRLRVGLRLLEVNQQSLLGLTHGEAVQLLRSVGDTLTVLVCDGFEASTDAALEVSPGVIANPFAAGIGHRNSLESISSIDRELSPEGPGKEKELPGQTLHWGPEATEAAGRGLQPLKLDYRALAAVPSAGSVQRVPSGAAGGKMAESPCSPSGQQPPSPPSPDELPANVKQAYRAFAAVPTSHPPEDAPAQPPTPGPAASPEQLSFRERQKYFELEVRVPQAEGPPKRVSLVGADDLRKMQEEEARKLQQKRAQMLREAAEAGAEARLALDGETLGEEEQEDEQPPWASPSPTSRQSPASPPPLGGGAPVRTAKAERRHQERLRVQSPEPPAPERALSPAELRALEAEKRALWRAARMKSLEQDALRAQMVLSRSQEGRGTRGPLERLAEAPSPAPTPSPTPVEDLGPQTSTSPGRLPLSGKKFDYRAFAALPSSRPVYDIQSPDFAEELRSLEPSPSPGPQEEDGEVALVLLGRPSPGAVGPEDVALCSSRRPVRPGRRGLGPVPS
For T761E, the “effect of a mutation on the interaction” value was “causing an interaction”.

The variants in the next test derive from B1. To be noted: with scrib_human SCRIB. This is another data set of the same source.
Target sequence in this assay (Q14160 whole entry): as above
As for T761E, the “effect of a mutation on the interaction” value is recorded as “increasing interaction strength”.

The variants in a further test derive from B2. To be noted: with scrib_human SCRIB.
Target sequence in this assay (Q14160 whole entry): as above
Turning to S1219E, the “effect of a mutation on the interaction” value is “increasing interaction strength”.

Variants of B2 are the subject of a further test. To be noted: with scrib_human SCRIB. The source holds these as a separate data set.
Target sequence in this assay (Q14160 whole entry): as above
As for S1215E;S1219E, the “effect of a mutation on the interaction” value was “increasing interaction strength”.

The variants in another test derive from B3. To be noted: with dlg1_human DLG1, Q12959.
dlg1_human DLG1, Q12959, sequence (Q12959 whole entry, looked up): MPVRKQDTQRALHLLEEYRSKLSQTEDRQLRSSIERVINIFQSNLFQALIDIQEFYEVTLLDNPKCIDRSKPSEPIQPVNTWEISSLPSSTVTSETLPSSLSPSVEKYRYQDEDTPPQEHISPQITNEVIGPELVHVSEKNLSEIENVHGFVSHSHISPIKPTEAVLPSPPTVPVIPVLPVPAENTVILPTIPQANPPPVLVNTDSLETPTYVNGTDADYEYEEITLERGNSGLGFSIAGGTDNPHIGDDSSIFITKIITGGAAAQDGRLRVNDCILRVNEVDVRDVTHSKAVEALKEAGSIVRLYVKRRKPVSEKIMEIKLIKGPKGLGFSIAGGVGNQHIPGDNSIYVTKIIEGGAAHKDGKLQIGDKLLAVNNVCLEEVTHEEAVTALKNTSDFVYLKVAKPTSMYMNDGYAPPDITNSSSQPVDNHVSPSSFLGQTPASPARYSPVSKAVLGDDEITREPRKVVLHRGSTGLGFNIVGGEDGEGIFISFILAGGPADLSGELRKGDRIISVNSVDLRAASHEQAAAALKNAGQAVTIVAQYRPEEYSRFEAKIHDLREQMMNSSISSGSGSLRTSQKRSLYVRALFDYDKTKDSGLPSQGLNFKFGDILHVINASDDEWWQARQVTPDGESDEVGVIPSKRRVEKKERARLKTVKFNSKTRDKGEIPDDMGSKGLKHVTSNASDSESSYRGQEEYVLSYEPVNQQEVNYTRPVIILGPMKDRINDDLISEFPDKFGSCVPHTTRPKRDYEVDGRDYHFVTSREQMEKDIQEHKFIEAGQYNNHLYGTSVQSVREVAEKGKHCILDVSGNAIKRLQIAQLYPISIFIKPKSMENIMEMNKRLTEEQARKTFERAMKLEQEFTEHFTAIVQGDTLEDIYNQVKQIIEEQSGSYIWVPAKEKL
With S730E, the “effect of a mutation on the interaction” value was “increasing interaction strength”.

A further test covers variants of B3. To be noted: with scrib_human SCRIB.
Target sequence in this assay (Q14160 whole entry): as the sequence (Q14160 whole entry) above
In the case of S730E, the “effect of a mutation on the interaction” value is “increasing interaction strength”.

Variants of B3 are the subject of another test. To be noted: with shan1_human SHANK1, Q9Y566.
shan1_human SHANK1, Q9Y566, sequence (Q9Y566 whole entry): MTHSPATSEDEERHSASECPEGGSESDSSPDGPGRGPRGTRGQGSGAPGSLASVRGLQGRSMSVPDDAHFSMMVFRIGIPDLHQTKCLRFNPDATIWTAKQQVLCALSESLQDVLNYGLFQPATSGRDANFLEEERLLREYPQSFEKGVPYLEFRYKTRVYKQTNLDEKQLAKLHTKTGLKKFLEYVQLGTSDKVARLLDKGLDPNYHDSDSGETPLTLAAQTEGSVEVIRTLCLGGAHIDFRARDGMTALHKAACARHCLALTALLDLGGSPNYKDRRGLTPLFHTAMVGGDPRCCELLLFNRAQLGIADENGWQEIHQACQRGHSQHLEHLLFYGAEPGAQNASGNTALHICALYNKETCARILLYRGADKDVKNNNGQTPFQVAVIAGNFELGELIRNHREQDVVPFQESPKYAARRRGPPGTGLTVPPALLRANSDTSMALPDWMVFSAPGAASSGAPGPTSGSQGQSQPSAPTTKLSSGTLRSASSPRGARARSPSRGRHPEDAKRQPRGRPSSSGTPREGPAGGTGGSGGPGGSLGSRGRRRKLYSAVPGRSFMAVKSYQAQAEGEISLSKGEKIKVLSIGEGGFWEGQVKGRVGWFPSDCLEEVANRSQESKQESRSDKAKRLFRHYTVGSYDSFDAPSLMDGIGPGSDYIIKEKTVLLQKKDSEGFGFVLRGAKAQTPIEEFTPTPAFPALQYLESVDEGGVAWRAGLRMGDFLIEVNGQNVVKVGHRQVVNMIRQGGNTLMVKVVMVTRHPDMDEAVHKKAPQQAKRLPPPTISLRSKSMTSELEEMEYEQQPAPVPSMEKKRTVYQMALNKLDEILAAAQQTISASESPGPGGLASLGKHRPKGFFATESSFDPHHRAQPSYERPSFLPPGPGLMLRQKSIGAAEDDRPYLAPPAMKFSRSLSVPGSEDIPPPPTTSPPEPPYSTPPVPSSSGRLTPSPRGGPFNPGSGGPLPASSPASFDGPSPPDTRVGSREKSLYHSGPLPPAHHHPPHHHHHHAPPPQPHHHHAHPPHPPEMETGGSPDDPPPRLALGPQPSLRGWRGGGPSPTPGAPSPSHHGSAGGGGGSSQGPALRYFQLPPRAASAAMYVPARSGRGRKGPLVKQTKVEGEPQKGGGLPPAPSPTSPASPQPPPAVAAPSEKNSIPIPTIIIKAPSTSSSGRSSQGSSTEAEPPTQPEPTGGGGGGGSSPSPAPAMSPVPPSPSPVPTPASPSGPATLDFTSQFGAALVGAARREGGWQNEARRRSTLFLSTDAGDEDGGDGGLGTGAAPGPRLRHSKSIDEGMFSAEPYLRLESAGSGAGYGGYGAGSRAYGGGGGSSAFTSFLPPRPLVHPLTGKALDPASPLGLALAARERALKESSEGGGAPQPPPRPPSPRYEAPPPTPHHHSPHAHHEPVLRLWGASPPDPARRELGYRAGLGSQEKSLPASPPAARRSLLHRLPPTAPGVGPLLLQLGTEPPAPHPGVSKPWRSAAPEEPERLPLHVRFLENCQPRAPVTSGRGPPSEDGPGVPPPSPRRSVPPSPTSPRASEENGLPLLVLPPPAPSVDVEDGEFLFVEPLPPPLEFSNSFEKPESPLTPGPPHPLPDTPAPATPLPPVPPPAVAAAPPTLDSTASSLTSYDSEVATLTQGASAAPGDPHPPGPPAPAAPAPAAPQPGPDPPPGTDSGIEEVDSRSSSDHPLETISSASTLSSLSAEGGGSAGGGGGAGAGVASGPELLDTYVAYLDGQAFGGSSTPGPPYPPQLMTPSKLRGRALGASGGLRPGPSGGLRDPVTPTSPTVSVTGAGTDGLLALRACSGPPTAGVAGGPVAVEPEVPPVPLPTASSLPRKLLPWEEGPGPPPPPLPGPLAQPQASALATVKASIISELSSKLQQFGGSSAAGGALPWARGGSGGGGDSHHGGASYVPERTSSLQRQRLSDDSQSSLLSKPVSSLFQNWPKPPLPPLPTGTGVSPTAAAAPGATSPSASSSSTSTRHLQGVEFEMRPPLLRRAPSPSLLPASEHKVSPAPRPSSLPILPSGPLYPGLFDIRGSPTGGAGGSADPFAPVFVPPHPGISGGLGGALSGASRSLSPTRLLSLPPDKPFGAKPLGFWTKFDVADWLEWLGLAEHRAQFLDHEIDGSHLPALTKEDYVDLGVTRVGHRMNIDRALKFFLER
As for S730E, the “effect of a mutation on the interaction” value is “decreasing interaction strength”.

Another test covers variants of B3. To be noted: with scrib_human SCRIB. The source holds these as a separate data set.
Target sequence in this assay (Q14160 whole entry): as the sequence (Q14160 whole entry) above
Turning to S730E, the “effect of a mutation on the interaction” value is reported as “causing an interaction”.

In the next test the parent is B3. To be noted: with scrib_human SCRIB. This is another data set of the same source.
For the variant S730A, the “effect of a mutation on the interaction” value is listed as “with no effect”.
